Broadly, the EC50 (read off the curve) is the concentration that produces a half-maximal response. As a reminder, the EC50 is the midpoint of the concentration-response curve. High values mean weaker potency, low ones greater potency.

EC50 (read off the curve), EC50 and EC50, NFAT luciferase reporter assay (n=3) data for one substance are collected here from patent publication US20230134580A1.

The target of experiment [1] is recombinant cynomolgus TIGIT (cynomolgus monkey). Nature of the experiment: ELISA on recombinant cyno-TIGIT. On the technique in general: ELISA stands for enzyme-linked immunosorbent assay.
The target of experiment [2] is human TIGIT (T cell immunoreceptor with Ig and ITIM domains), expressed on cells (human) (UniProt Q495A1). Nature of the experiment: whole cell binding assays, n=3 (FIG. 10A).
human TIGIT (T cell immunoreceptor with Ig and ITIM domains), expressed on cells (human), sequence (Q495A1 22-244 limits assumed): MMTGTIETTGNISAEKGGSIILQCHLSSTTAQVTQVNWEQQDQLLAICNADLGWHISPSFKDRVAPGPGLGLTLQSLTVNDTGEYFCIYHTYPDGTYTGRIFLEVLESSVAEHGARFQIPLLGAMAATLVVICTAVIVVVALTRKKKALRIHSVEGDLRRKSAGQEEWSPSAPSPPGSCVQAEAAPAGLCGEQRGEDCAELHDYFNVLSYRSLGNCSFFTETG
Experiment [3] has the same target. Nature of the experiment: cell-based or functional assay.
Experiment [4] has as its target recombinant human TIGIT extracellular domain (ECD) (human) (UniProt Q495A1). As to the kind of experiment: ELISA on recombinant human TIGIT ECD.
Experiment [5] has as its target human TIGIT (T cell immunoreceptor with Ig and ITIM domains), expressed on cells (human) (UniProt Q495A1). As to the kind of experiment: flow cytometry (CytoFlex), whole cell binding to cells expressing human TIGIT, MFI of AlexaFlour 488; one representative of three experiments. In general terms: Flow cytometry measures light scatter and fluorescence of single cells or particles in a stream.

recombinant human TIGIT extracellular domain (ECD) (human), sequence (Q495A1 22-138 limits assumed): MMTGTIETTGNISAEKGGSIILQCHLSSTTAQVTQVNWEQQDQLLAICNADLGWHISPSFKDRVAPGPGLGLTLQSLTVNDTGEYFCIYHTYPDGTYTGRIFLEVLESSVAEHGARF

As to “Reference Ab 2 (same amino acid sequences as Tiragolumab, U.S. 2017/0088613 A1) (antibody)”, the EC50 (read off the curve) in experiment [1] was found to be 0.1 µg/mL; in experiment [4], 0.1 µg/mL; in experiment [5], 0.5 nM. The substance further returned an EC50 in experiment [2] of 0.61 nM. For the same substance, the EC50, NFAT luciferase reporter assay (n=3) in experiment [3] was 0.72 nM.
